B1: 24B3 (antibody, V domains shown)
VH: EVQLVESGGGLVKPGGSLRLSCAASGFTFSTYSMNWVRQAPGKGLEWVSFISGRSSYIYYADSVKGRFTISRDNAKNSLYLQMNSLRAEDTAVYYCSKDDWFEELWGQGTLVTVSS
VL: DIQMTQSPSSLSASVGDRVTITCRASQGIRSDLGWYQQKPGKAPKRLIYATSSLQSGVPSRFSGSGSGTEFTLTISSLQPEDFATYYCLQHNRYPWTFGQGTKVEIK
notes: Purified fully human monoclonal antibody from XenoMouse hybridoma (IgG2 or IgG4 strains); also called MAb 24B3
B2: 27D10 (antibody, V domains shown)
VH: QLQLQESGPGLVKPSETLSLTCTVSGGSISSRSDYWGWIRQPPGKGLEWIGTIYYSGSTFYNPSLKSRVTISVDTSKNQFSLKLSSVTAADTAVYYCARQQLVLYYFDYWGQGTLVTVSS
VL: not shown
notes: Purified fully human monoclonal antibody from XenoMouse hybridoma (IgG2 or IgG4 strains); also called MAb 27D10
B3: 33C3 (antibody, V domains shown)
VH: QVQLVESGGGLVKPGESLRLSCAASGFTFSDYYMSWIRQAPGKGLEWVSYISHGGSTIYYADSVKGRFTISRDNAKNSLYLQMNSLRVEDTAVYFCARDDFWSGYYFNWFDPWGQGALVTVSS
VL: DIQMTQYPLSLSASVGDRVTITCRASQSISSFLNWYHQKPGKAPKLLIYGTSSLQSGVPSRFSGSGSGTDFTLTISSLQPEDFATYYCQQTYSIPLTFGGGTNVEIK
notes: Purified fully human monoclonal antibody from XenoMouse hybridoma (IgG2 or IgG4 strains); also called MAb 33C3

Biological target: human KDR on cells (human, UniProt P35968 20-1356)
Experiment: cell-based or functional assay

Chain of human KDR on cells (P35968 20-1356): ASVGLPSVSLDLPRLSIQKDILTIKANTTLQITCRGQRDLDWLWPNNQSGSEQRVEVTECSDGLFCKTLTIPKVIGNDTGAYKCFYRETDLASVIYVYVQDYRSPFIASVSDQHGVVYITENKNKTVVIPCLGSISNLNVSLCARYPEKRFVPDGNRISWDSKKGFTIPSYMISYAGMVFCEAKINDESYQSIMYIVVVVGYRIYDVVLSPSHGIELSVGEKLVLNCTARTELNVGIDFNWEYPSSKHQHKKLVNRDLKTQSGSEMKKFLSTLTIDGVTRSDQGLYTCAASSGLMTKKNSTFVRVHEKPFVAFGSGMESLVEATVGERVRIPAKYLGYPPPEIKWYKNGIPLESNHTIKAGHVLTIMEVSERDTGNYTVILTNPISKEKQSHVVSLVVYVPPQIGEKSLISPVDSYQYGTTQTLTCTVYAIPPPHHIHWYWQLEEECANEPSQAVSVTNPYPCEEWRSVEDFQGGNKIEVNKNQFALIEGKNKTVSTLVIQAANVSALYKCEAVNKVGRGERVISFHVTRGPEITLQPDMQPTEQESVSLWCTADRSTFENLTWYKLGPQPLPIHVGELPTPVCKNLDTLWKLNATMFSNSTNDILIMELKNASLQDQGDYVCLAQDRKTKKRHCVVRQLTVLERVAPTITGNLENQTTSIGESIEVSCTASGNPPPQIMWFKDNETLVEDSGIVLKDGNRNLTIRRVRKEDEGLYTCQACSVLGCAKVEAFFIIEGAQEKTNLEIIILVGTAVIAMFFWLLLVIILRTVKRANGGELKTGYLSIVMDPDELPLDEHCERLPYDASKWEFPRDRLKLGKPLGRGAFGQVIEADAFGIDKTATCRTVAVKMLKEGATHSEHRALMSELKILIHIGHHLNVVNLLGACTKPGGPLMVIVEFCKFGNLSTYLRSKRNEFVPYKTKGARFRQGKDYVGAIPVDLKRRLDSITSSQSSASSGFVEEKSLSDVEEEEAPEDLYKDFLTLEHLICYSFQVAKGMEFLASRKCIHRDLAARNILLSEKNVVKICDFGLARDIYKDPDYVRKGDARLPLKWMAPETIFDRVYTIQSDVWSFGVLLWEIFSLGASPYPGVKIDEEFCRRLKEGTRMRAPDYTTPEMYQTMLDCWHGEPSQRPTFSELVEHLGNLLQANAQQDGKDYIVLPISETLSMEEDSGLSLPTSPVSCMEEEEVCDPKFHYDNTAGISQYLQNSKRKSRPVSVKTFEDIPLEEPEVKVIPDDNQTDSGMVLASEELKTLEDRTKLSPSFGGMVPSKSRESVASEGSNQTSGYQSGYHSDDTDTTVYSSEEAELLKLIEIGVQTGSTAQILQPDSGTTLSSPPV

% Inhibition (Average) of VEGF-C-mediated KDR activity, antibody 1 nM [%]	% Inhibition (Average) of VEGF-C-mediated KDR activity, antibody 10 nM [%]	% Inhibition (Average) of VEGF-C-mediated KDR activity, antibody 100 nM [%]	% Inhibition (N = 1) of VEGF-C-mediated KDR activity, antibody 1 nM [%]	% Inhibition (N = 1) of VEGF-C-mediated KDR activity, antibody 10 nM [%]	% Inhibition (N = 1) of VEGF-C-mediated KDR activity, antibody 100 nM [%]	% Inhibition (N = 2) of VEGF-C-mediated KDR activity, antibody 1 nM [%]	% Inhibition (N = 2) of VEGF-C-mediated KDR activity, antibody 10 nM [%]	% Inhibition (N = 2) of VEGF-C-mediated KDR activity, antibody 100 nM [%]	Binder
30	62	71	26	61	67	34	62	75	B1
51	76	80	52	73	76	50	79	84	B2
66	88	85	71	87	84	61	89	86	B3

Biological target: T1, KDR (antigen used as analyte in the Biacore assay) (UniProt P35968 20-764, limits assumed)
T1 construct: also called the antigen KDR
Experiment: SPR, Biacore 2000; antibody amine-coupled on CM4 chip, KDR as analyte; global 1:1 fit; 23 C
Experimental: Each purified anti-KDR antibody was immobilized on a CM4 sensor chip within a Biacore 2000 using standard amine coupling. Immobilization levels were kept between 250 and 350 RU. The concentration of KDR was determined by UV-VIS spectroscopy using a molar absorptivity at 280 nm of 110, 440 M⁻¹ cm⁻¹, which was calculated from the sequence of the protein using a method developed by Pace et al. (G. R. Grimsley and C. N. Pace (2003) in Current Protocols in Protein Science (John Wiley & Sons, Inc.), 3.1.1-3.1.9). The antigen KDR was diluted to a starting concentration of 52 nM and tested in a 3-fold dilution series in triplicate. The running buffer contained HBS-P with 0.1 mg/ml BSA and binding responses were collected at 23 degrees C. […] The response data were globally fit with a simple 1:1 interaction model. The number shown in parentheses is the standard error in the last significant figure.

T1 sequence (P35968 20-764 limits assumed): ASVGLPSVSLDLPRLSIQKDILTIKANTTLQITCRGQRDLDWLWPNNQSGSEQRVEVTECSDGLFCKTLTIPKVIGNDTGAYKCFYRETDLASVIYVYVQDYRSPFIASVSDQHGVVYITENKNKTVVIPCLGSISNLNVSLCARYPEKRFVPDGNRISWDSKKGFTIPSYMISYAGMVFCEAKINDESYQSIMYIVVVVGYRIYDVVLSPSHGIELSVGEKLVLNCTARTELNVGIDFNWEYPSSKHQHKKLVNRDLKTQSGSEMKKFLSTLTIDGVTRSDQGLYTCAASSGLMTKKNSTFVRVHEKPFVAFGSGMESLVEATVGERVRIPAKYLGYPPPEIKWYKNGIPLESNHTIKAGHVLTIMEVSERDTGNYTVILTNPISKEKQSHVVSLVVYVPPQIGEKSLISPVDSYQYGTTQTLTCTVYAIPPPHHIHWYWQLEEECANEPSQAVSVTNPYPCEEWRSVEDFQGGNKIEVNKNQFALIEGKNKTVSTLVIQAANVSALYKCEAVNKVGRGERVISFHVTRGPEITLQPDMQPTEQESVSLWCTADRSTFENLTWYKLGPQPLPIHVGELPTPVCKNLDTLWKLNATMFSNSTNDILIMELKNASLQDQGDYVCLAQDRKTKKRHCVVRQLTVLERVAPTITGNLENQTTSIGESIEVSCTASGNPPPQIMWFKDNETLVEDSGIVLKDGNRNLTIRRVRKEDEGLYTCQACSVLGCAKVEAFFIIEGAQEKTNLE

Kd [nM]	koff [s⁻¹]	kon [M⁻¹ s⁻¹]	Binder
1.09	0.000191	175000	B1
4.91	0.000254	51800	B2
0.91	9.3e-05	102000	B3
